Source: patent publication US20090280134A1

Key:
[1] = target: PSGL-1/mIgG2b fusion protein co-expressed with porcine α1,3 galactosyltransferase (α-Gal substituted) (human; mouse) (UniProt Q14242); experiment: sandwich ELISA, fusion protein made in CHO cells with α1,3GalT against the same made without α1,3GalT
[2] = target: PSGL-1/mIgG2b fusion protein co-expressed with porcine α1,3 galactosyltransferase (α-Gal substituted) (human; mouse) (UniProt Q14242); experiment: sandwich ELISA, fusion protein made in 293T cells with α1,3GalT against the same made without α1,3GalT
[3] = target: PSGL-1/mIgG2b fusion protein co-expressed with porcine α1,3 galactosyltransferase (α-Gal substituted) (human; mouse) (UniProt Q14242); experiment: sandwich ELISA, fusion protein made in COS cells with α1,3GalT against the same made in COS without α1,3GalT
[4] = target: PSGL-1/mIgG2b fusion protein co-expressed in CHO-K1 cells with porcine α1,3GalT and core 2 β1,6 GlcNAc transferase (C2 GnTI) (human; mouse) (UniProt Q14242); experiment: sandwich ELISA, fusion protein from CHO-K1 with α1,3GalT and C2 GnTI against fusion protein from CHO-K1 without α1,3GalT
[5] = target: PSGL-1/mIgG2b fusion protein co-expressed in CHO-K1 cells with porcine α1,3GalT and core 2 β1,6 GlcNAc transferase (C2 GnTI) (human; mouse) (UniProt Q14242); experiment: sandwich ELISA, fusion protein from CHO-K1 with α1,3GalT and C2 GnTI against fusion protein from CHO-K1 with α1,3GalT alone

fold increase in relative O.D. (GSA-reactivity/anti-mouse IgG reactivity) [1]: 1.8 fold
fold increase in relative O.D. (GSA-reactivity/anti-mouse IgG reactivity) [2]: 3.1 fold
fold increase in relative O.D. (GSA-reactivity/anti-mouse IgG reactivity) [3]: 5.3 fold
fold increase in α-Gal epitope density (relative O.D., GSA-reactivity/anti-mouse IgG reactivity) [4]: 13 fold
fold increase in α-Gal epitope density (relative O.D., GSA-reactivity/anti-mouse IgG reactivity) [5]: 7.4 fold
Substance: peroxidase-conjugated Griffonia (Bandeiraea) simplicifolia I isolectin B4 (cat.no. L-5391; Sigma)
